For six substances, blocking of viral entry: % GFP-positive DF-1 cells (FACS) after incubation with the gp85 protein and infection with RCASBP (A)-EGFP; Tva on DF-1 cells (Figure 6C) (% GFP-positive cells) and ratio to parent results are on record in paper PMC9095613.

The first assay addresses Tva-HA-Fc (chicken).
Assay: not given
Settings: not given
Consider “A-gp85-flag wt (soluble gp85 of ALV-A RSA) (natural protein)”, for which the blocking of viral entry: % GFP-positive DF-1 cells (FACS) after incubation with the gp85 protein and infection with RCASBP (A)-EGFP; Tva on DF-1 cells (Figure 6C) (% GFP-positive cells) was determined as 0.21. Still for that read-out and setting: under “E-gp85-flag wt (soluble gp85 of ALV-E ev-1) (natural protein)” stands 31.

The next assay concerns the target Tva-HA-Fc. Briefly: co-IP. The settings on record: parent: est. 1.0; read off a plot.
As for “A-gp85-flag wt (soluble gp85 of ALV-A RSA) -139S”, the ratio to parent came out at 0.73. For the substance “A-gp85-flag wt (soluble gp85 of ALV-A RSA) -155PWVNPF”, the ratio to parent is 0.07. Still for that read-out and setting: under “A-gp85-flag wt (soluble gp85 of ALV-A RSA) -201NFD” stands 0.8. Still for that read-out and setting: under “A-gp85-flag wt (soluble gp85 of ALV-A RSA) -266S” stands 0.43.
